Data published in paper PMC12505966, “Soluble MFGE8 mediates cell entry of Crimean-Congo hemorrhagic fever virus” (mBio, 2025).

Target: T1, CCHFV Gc monomer (Gc10200 aa 1,041-1,579, Strep-Tag II) (Crimean-Congo hemorrhagic fever virus, …, UniProt Q8JSZ3 1041-1579)
T1 construct: also called Gc protein; recombinant Gc monomer
T1 sequence: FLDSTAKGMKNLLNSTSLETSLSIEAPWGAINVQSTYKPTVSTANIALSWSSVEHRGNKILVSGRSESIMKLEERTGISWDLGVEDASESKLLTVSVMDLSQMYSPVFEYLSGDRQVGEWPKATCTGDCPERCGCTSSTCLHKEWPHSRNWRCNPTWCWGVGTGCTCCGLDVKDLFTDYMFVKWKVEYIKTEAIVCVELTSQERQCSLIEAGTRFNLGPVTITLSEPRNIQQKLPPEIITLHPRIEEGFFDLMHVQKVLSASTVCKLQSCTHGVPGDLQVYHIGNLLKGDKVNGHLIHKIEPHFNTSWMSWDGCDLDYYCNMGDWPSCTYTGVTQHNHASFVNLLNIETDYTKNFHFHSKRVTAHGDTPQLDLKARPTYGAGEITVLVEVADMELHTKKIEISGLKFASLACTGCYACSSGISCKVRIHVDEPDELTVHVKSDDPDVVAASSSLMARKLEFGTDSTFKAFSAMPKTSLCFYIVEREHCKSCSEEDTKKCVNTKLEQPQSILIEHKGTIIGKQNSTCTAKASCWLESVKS
Experiment: BLI; ForteBio Octet Red; […] (15 µg/mL) […]; PBS with 0.02% Tween 20 and 0.1% BSA; 1/1 binding model
Conditions: both partners purified

B1: Human recombinant MFGE8 protein with His tag at the C-terminus (natural protein, UniProt Q08431 24-387, looked up)
chain: LDICSKNPCHNGGLCEEISQEVRGDVFPSYTCTCLKGYAGNHCETKCVEPLGLENGNIANSQIAASSVRVTFLGLQHWVPELARLNRAGMVNAWTPSSNDDNPWIQVNLLRRMWVTGVVTQGASRLASHEYLKAFKVAYSLNGHEFDFIHDVNKKHKEFVGNWNKNAVHVNLFETPVEAQYVRLYPTSCHTACTLRFELLGCELNGCANPLGLKNNSIPDKQITASSSYKTWGLHLFSWNPSYARLDKQGNFNAWVAGSYGNDQWLQVDLGSSKEVTGIITQGARNFGSVQFVASYKVAYSNDSANWTEYQDPRTGSSKIFPGNWDNHSHKKNLFETPILARYVRILPVAWHNRIALRLELLGC
notes: also called milk fat globule-EGF factor 8 protein; lactadherin; not shown: His tag, C-terminal, kept
  Kd: < 1 pM
